Measured values: publication PMC7375243, “Structural Basis of Human Helicase DDX21 in RNA Binding, Unwinding, and Antiviral Signal Activation” (Advanced Science, 2020)

Assays:
[1] = target: the molecule itself; assay: SEC; gel filtration of DDX21 del-C (1-710) and del-NC (188-710), data not shown; final SEC buffer of del-C with 200 mM NaCl
DDX21 full-length = target: T1, DDX21 full-length (human, UniProt Q9NR30 1-783); assay: UV crosslinking/MST/SEC (method for this pair not specified); MST: 50 mM Tris pH 7.5, 50 mM KCl, 2 mM MgCl2, 1 mM TCEP, 0.01% NP-40, 0.05 mg/mL BSA, 2 mM AMPPNP, 50 nM FAM-RNA; temperature not given; crosslinking buffer not in material; settings: protein: recombinant; tags: N-terminal His-SUMO, removed by ULP1; chain copies: 3; single strand
T1 sequence: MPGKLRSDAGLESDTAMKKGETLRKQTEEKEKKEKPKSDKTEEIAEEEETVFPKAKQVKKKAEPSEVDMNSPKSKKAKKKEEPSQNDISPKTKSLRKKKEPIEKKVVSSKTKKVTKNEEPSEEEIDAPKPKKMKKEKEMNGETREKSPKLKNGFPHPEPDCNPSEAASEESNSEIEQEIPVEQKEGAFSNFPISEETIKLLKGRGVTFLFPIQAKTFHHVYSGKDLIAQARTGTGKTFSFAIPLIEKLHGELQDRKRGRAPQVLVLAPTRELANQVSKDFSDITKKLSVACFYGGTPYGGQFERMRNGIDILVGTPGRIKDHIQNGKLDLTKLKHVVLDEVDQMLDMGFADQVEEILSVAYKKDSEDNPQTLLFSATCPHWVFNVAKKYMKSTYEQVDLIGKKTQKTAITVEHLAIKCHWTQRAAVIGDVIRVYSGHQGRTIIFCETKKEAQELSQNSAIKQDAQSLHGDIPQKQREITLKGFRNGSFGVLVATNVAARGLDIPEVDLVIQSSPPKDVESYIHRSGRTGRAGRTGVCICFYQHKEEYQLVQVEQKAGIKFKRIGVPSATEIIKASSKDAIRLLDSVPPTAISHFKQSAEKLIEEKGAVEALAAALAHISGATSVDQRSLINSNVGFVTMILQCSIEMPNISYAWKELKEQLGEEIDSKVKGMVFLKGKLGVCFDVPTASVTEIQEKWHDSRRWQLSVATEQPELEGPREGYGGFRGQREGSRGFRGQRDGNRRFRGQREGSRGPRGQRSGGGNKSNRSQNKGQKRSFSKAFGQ

[2] = target: T2, DDX21 helicase core (D1D2, DDX21-delNC) (human, UniProt Q9NR30 188-563); assay: crystal structure; AMPPNP, Mg2+; 2.24 A, 7 nt visible; MST: 50 mM Tris pH 7.5, 50 mM KCl, 2 mM MgCl2, 1 mM TCEP, 0.01% NP-40, 0.05 mg/mL BSA, 2 mM AMPPNP, 50 nM FAM-RNA; temperature not given; crosslinking buffer not in material; settings: protein: recombinant; tags: N-terminal His-SUMO, removed by ULP1; single strand
T2 sequence: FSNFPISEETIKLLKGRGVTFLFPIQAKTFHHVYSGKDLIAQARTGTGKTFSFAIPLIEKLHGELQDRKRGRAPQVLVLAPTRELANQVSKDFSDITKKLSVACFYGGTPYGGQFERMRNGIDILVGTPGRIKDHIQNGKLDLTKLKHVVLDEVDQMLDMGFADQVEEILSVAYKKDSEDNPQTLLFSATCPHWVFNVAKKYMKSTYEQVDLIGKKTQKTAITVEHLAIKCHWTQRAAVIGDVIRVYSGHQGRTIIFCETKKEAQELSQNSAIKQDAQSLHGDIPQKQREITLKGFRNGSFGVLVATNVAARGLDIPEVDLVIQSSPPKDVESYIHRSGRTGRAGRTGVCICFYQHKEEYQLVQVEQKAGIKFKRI

[3] = target: the molecule itself; assay: SAXS; beamline BL19U2, 1-3 mg/mL protein; 20 mM Tris-HCl pH 7.5, 1 mM TCEP, 100 mM NaCl for DDX21 (188-563), 500 mM NaCl for DDX21 (1-783); ab initio envelopes (GASBOR)

B1: DDX21 del-NC (188-710) (domain or fragment, human, UniProt Q9NR30-1 188-710, looked up)
chain: FSNFPISEETIKLLKGRGVTFLFPIQAKTFHHVYSGKDLIAQARTGTGKTFSFAIPLIEKLHGELQDRKRGRAPQVLVLAPTRELANQVSKDFSDITKKLSVACFYGGTPYGGQFERMRNGIDILVGTPGRIKDHIQNGKLDLTKLKHVVLDEVDQMLDMGFADQVEEILSVAYKKDSEDNPQTLLFSATCPHWVFNVAKKYMKSTYEQVDLIGKKTQKTAITVEHLAIKCHWTQRAAVIGDVIRVYSGHQGRTIIFCETKKEAQELSQNSAIKQDAQSLHGDIPQKQREITLKGFRNGSFGVLVATNVAARGLDIPEVDLVIQSSPPKDVESYIHRSGRTGRAGRTGVCICFYQHKEEYQLVQVEQKAGIKFKRIGVPSATEIIKASSKDAIRLLDSVPPTAISHFKQSAEKLIEEKGAVEALAAALAHISGATSVDQRSLINSNVGFVTMILQCSIEMPNISYAWKELKEQLGEEIDSKVKGMVFLKGKLGVCFDVPTASVTEIQEKWHDSRRWQLSVATE
notes: human DDX21, residues 188-710
- stoichiometry N [1]: 2

Binder: UUUUUUUUUUUUUUU (ssRNA) [U15]
- binding result (DDX21 full-length): binds
- binding result [2]: binds

B2: full-length DDX21 (1-783) (enzyme, human, UniProt Q9NR30-1 1-783, looked up)
chain: T1 sequence
notes: human DDX21, residues 1-783, codon-optimised synthetic gene; The text says it might be a trimer (SAXS, gel filtration); also called WT DDX21; RNA helicase DDX21; source: E. coli BL21-CodonPlus (DE3)-RIL, purified (Ni-NTA, ULP1 cleavage, Ni-NTA, Superdex 200); not shown: His-sumo, N-terminal, cleaved
- stoichiometry N [3]: 3

B3: DDX21 del-C (1-710) (domain or fragment, human, UniProt Q9NR30-1 1-710, looked up)
chain: MPGKLRSDAGLESDTAMKKGETLRKQTEEKEKKEKPKSDKTEEIAEEEETVFPKAKQVKKKAEPSEVDMNSPKSKKAKKKEEPSQNDISPKTKSLRKKKEPIEKKVVSSKTKKVTKNEEPSEEEIDAPKPKKMKKEKEMNGETREKSPKLKNGFPHPEPDCNPSEAASEESNSEIEQEIPVEQKEGAFSNFPISEETIKLLKGRGVTFLFPIQAKTFHHVYSGKDLIAQARTGTGKTFSFAIPLIEKLHGELQDRKRGRAPQVLVLAPTRELANQVSKDFSDITKKLSVACFYGGTPYGGQFERMRNGIDILVGTPGRIKDHIQNGKLDLTKLKHVVLDEVDQMLDMGFADQVEEILSVAYKKDSEDNPQTLLFSATCPHWVFNVAKKYMKSTYEQVDLIGKKTQKTAITVEHLAIKCHWTQRAAVIGDVIRVYSGHQGRTIIFCETKKEAQELSQNSAIKQDAQSLHGDIPQKQREITLKGFRNGSFGVLVATNVAARGLDIPEVDLVIQSSPPKDVESYIHRSGRTGRAGRTGVCICFYQHKEEYQLVQVEQKAGIKFKRIGVPSATEIIKASSKDAIRLLDSVPPTAISHFKQSAEKLIEEKGAVEALAAALAHISGATSVDQRSLINSNVGFVTMILQCSIEMPNISYAWKELKEQLGEEIDSKVKGMVFLKGKLGVCFDVPTASVTEIQEKWHDSRRWQLSVATE
notes: human DDX21, residues 1-710; source: E. coli BL21-CodonPlus (DE3)-RIL, purified (Ni-NTA, ULP1 cleavage, Ni-NTA, Superdex 200); not shown: His-sumo, N-terminal, cleaved
- stoichiometry N [1]: 5
